The values below come from patent US20240299493A1 (ACCELERON PHARMA, published 2024).

The target in assay [1] is T1, GDF11 (UniProt O95390 299-407).
T1 sequence (looked up): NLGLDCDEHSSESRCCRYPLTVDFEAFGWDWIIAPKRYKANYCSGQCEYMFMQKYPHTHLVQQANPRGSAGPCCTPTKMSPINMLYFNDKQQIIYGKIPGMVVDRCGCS
Put plainly: cell-based or functional assay.

For assay [2], the target named is T2, activin A (UniProt P08476 311-426).
T2 construct: also called ActA
T2 sequence (looked up): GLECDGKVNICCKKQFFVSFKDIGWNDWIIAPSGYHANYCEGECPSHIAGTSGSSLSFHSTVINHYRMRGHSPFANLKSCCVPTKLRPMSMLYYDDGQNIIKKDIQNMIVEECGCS
Put plainly: cell-based or functional assay.

Assay [3] concerns the target T1, GDF11. As to the kind of experiment: Biacore; Fc fusion captured by anti-hFc antibody, ligand flowed. The procedure: (§1) Binding of certain ActRIIB-Fc proteins and ActRIIB variant Fc fusion polypeptides to ligands was tested in a Biacore™ assay.
(§2) The ActRIIB-Fc variants or wild-type protein were captured onto the system using an anti-hFc antibody. Ligands were injected and flowed over the captured receptor proteins.

In assay [4] the target is T2, activin A. The description is as above. The procedure: as §1, §2
The target in a further assay is T3, GDF8 (UniProt O14793 267-375).
T3 construct: also called myostatin
T3 sequence (looked up): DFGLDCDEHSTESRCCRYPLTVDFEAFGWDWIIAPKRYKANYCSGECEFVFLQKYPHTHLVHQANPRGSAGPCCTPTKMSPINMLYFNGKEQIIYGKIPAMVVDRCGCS
The assay is described as above. The procedure: as §1, §2

In the assay with GDF11 [1], ActRIIB-Fc A64 20-134 (Fc fusion) returned a GDF11 Inhibition Activity (KI) of 1000 nM. Besides, the Activin Inhibition Activity (KI) with activin A [2] came out at 1000 nM.

B1: ActRIIB(A24N 20-134)-hFc (Fc fusion)
chain: GRGENETRECIYYNANWELERTNQSGLERCEGEQDKRLHCYASWRNSSGTIELVKKGCWLDDFNCYDRQECVATEENPQVYFCCCEGNFCNERFTHLPEAGGPEVTYEPPPTAPTGGGTHTCPPCPAPELLGGPSVFLFPPKPKDTLMISRTPEVTCVVVDVSHEDPEVKFNWYVDGVEVHNAKTKPREEQYNSTYRVVSVLTVLHQDWLNGKEYKCKVSNKALPVPIEKTISKAKGQPREPQVYTLPPSREEMTKNQVSLTCLVKGFYPSDIAVEWESNGQPENNYKTTPPVLDSDGSFFLYSKLTVDKSRWQQGNVFSCSVMHEALHNHYTQKSLSLSPGK
modifications: A24N creates an N-linked glycosylation sequence (N-E-T), paragraph 96
notes: also called A24N variant
Take B1: in the assay with GDF11 [3], the Kd – broadly, the free concentration of one partner at which half of the binding sites on the other are occupied at equilibrium, for simple one-to-one binding – worked out at 0.0519 nM and the koff (usually the rate constant with which the complex falls apart) was found to be 6.35e-05 s⁻¹. Moreover, in the assay with activin A [4], the dissociation constant (Kd) turned out to be 0.104 nM; the koff turned out to be 0.000346 s⁻¹; the kon (in general, the rate constant with which the complex forms) came to 3.34e+06 M⁻¹ s⁻¹.

B2: ActRIIB(R64K 20-129)-hFc (Fc fusion)
chain: GRGEAETRECIYYNANWELERTNQSGLERCEGEQDKRLHCYASWKNSSGTIELVKKGCWLDDFNCYDRQECVATEENPQVYFCCCEGNFCNERFTHLPEAGGPEVTYEPPTGGGTHTCPPCPAPELLGGPSVFLFPPKPKDTLMISRTPEVTCVVVDVSHEDPEVKFNWYVDGVEVHNAKTKPREEQYNSTYRVVSVLTVLHQDWLNGKEYKCKVSNKALPVPIEKTISKAKGQPREPQVYTLPPSREEMTKNQVSLTCLVKGFYPSDIAVEWESNGQPENNYKTTPPVLDSDGSFFLYSKLTVDKSRWQQGNVFSCSVMHEALHNHYTQKSLSLSPGK
Consider B2, for which, in the assay with activin A [4], binding was put at a Kd of 0.0841 nM, the koff turned out to be 0.000628 s⁻¹ and the kon stood at 7.46e+06 M⁻¹ s⁻¹. In the assay with GDF8, this molecule registered a dissociation constant (Kd) of 2.15 nM and a koff of 0.000209 s⁻¹.
